Experimental data taken from patent US20240343803A1 (SHANDONG SIMCERE BIOPHARMACEUTICAL, published 2024).
Substitutions are numbered along the chain they refer to.

T1: Fusion protein of extracellular domain of human TIGIT and His-tag (human TIGIT ECD-his) (human)
T1 chain: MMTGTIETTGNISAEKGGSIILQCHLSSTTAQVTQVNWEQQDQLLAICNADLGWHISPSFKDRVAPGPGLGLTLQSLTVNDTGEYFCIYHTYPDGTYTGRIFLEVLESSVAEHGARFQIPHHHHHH

T2: Full-length human TIGIT on CHO-K1 cells (CHO-K1 human TIGIT) (human, UniProt Q495A1 22-244)
T2 construct: NCBI XP_024309156.1; the entry includes the signal peptide (limits not recoverable); The strain (high, medium, low) is named under assay; also called high expression strain 1D2; medium expression strain 2D10
T2 sequence: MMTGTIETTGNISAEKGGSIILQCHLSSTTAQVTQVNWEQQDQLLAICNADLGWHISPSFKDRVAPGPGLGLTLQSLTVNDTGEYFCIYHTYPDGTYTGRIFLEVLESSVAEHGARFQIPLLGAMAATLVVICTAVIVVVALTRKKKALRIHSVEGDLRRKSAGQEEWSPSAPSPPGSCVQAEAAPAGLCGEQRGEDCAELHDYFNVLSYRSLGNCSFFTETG

T3: Fusion protein of extracellular domain of human TIGIT and mouse IgG2a Fc fragment (human TIGIT ECD-mFc) (human)
T3 construct: The entry includes the signal peptide (limits not recoverable) and the mouse IgG2a Fc
T3 chain: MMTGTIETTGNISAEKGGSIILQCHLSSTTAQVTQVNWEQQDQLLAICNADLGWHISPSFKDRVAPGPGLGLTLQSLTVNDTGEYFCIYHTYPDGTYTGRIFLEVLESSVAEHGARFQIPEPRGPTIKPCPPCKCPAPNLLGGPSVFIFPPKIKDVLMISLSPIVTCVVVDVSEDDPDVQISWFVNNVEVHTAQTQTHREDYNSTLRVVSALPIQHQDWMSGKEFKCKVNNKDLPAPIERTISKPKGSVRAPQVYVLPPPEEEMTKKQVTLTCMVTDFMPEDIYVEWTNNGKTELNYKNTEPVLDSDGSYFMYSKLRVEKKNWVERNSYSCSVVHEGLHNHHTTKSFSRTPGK

B1: TIGIT-CHI-070 (antibody, V domains shown)
VH: QVQLQQPGTELVKPGASVKLSCRASGYTFTNYYMHWVKQRPGRGLEWIGRIDPDSGGSKYNEKFKSKATLTVDKLSSTAYMQLSSLTSEDSAVYYCAREGHYGFYSDYWGQGTTLTVSS
VL: DIQMTQSPASLSASVGETVTITCRVSENIYSYLAWYQQKQGKSPQLLVYNAKTLAEGVPSRFSGSGSGTQFSLKINSLQPEDFGNYYCQHHYGNPLTFGAGTKLDLK
notes: Human-mouse chimeric antibody
B2: TIGIT-005-H2L1a (antibody, V domains shown)
VH: EVQLVQSGAEVKKPGASVKVSCKASGYAFTNYLIEWVRQAPGQRLEWMGVINPGSGGTNYKEKFKGRVTITADKSSSTAYMELSSLRSEDTAVYYCARGEYFFFDYWGQGTTVTVSS
VL: DIVMTQSPDSLAVSLGERATINCKASQHVSQGVAWYQHKPGQSPKLLIYSASYRYTGVPDRFSGSGSGTDFTLTISSLQAEDVAVYYCQQHYNTPHTFGGGTKVEIK
notes: Humanized anti-TIGIT antibody with NG-site mutation in VL
B3: TIGIT-005-H2L1b (antibody, V domains shown)
VH: B2 VH
VL: B2 VL with Q31T
notes: as for B2
B4: TIGIT-005-H2L1c (antibody, V domains shown)
VH: B2 VH
VL: B2 VL with Q31D
notes: as for B2
B5: TIGIT-CHI-005 (antibody, V domains shown)
VH: QVQLQQSGAELVRPGTSVKVSCKASGYAFTNYLIEWVKQRPGQGLEWIGVINPGSGGTNYKEKFKGKATLTADKSSSTAYMQLSSLTSEDSAVYFCARGEYFFFDYWGQGTTLTVSS
VL: DIVMTQSHKFMSTSVGDRVSITCKASQHVSNGVAWYQHKPGQSPKLLIYSASYRYTGVPDRFTGTGSGTDFTFTISSVQAEDLAVYYCQQHYNTPHTFGGGTKLEIK
notes: Human-mouse chimeric antibody
B6: TIGIT-CHI-006 (antibody, V domains shown)
VH: EVQLQESGPGLAKPSQTPSLTCSVTGYSMTSDYWNWIRKFPGNKLEYMGYISYSGRTYYNPSLKSRISITRDTSKNQFYLQLNSVTTEDTATYYCARGDYSNYGGAMYDWGQGTSVTVSS
VL: DIVMTQSHKFMSTSVGDRVSITCRASQGVSTTIAWYQQKPGQSPKLLIYSASYRYTGVPDRFTGSGSGTDFTFTISGVQAEDLAVYYCQQYYSSPFTFGGGTKLEIK
notes: Human-mouse chimeric antibody

What was measured:
[1] = biological target: T4, Fusion protein of extracellular domain of human TIGIT and human IgG1 Fc fragment (human TIGIT ECD-hFc) (human); assay: blocking of TIGIT ECD-hFc binding to CHO-K1 CD155 cells
T4 construct: The entry includes the signal peptide (limits not recoverable) and the human IgG1 Fc
T4 sequence (chain, as listed by the source limits assumed): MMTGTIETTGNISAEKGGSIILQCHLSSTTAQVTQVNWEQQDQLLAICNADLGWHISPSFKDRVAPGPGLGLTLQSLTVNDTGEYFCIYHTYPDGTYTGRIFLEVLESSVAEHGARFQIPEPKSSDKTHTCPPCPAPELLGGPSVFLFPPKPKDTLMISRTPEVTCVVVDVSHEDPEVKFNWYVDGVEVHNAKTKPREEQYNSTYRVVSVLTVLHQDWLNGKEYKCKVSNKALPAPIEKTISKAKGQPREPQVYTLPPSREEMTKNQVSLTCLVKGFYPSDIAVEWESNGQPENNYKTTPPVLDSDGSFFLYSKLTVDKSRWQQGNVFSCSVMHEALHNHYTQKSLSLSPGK
Summary of the method: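 Inhibition was expressed as IC50 values derived from the inhibition curves of a cell-based ELISA. CHO-K1 CD155 cells were cultured overnight, fixed, and blocked with 5% skim milk-PBS. Antibodies were first premixed for 0.5 h with human TIGIT ECD-hFc at a working concentration of 30 ng/mL, and the mixture was then added to the cells for 1.5-2 h at 37° C. Bound TIGIT was detected with HRP secondary antibody (1:5000, 37° C, 1 h) and TMB, and read as OD450 nm.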

[2] = biological target: T5, Fusion protein of extracellular domain of cynomolgus monkey TIGIT and mouse IgG2a Fc fragment (cynomolgus … (cynomolgus monkey)); assay: ELISA, cynomolgus monkey TIGIT ECD-mFc
T5 construct: The entry includes the signal peptide (limits not recoverable) and the mouse IgG2a Fc
T5 sequence (chain, as listed by the source limits assumed): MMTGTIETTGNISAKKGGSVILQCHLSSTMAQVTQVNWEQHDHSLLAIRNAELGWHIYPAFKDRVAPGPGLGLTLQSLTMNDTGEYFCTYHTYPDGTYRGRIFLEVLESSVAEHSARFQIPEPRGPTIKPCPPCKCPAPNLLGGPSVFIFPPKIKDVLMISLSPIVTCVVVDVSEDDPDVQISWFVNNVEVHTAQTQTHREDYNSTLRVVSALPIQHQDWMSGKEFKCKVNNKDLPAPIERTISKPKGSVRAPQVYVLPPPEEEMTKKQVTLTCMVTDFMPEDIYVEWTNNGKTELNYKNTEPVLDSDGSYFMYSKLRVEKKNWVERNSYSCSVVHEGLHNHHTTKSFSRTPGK
Summary of the method: (§1)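 Antibodies diluted to 13 nM in 1% BSA, then 3-fold serial dilution for 12 concentrations, incubated with milk-blocked plates at 37° C for 1.5-2 h. Bound antibody detected with HRP-labelled secondary antibody (1:5000, 37° C, 1 h) and TMB, stopped with 1M HCl; OD450 nm read.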

[3] = biological target: T1, Fusion protein of extracellular domain …; assay: BIAcore; reference itself
[4] = biological target: T1, Fusion protein of extracellular domain …; assay: BIAcore
[5] = biological target: T6, Full-length cynomolgus monkey TIGIT on CHO-K1 cells (CHO-K1 cynomolgus monkey TIGIT) (cynomolgus monkey); assay: cell binding, CHO-K1 cynomolgus monkey TIGIT
T6 construct: NCBI XP_015300911.1
T6 sequence (chain, as listed by the source limits assumed): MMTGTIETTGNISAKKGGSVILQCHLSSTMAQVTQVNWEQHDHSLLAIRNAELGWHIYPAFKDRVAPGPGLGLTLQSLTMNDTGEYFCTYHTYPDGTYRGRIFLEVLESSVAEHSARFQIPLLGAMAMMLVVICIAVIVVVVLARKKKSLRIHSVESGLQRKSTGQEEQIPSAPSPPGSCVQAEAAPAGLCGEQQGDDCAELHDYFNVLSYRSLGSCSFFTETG
Summary of the method: (§2)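 Binding was measured by flow cytometry after a 60-minute, 4° C incubation of the antibodies with 2×10⁵ CHO-K1 cells displaying full-length human or cynomolgus monkey TIGIT. Antibody titration: 12 points, threefold serial dilution from 80 nM, in 1% BSA-PBS.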

[6] = biological target: T2, Full-length human TIGIT on CHO-K1 cells …; assay: cell binding, CHO-K1 human TIGIT high expression strain
Summary of the method: as §2

[7] = biological target: T3, Fusion protein of extracellular domain …; assay: ELISA, human TIGIT ECD-mFc
Summary of the method: as §1

[8] = biological target: T1, Fusion protein of extracellular domain …; assay: BIAcore; KD ratio, by the numbers to TIGIT-005-H2L1 of r33

Binder | IC50 [1] [pM] | EC50 [2] [pM] | Fold change vs chimeric antibodies (KD) [3] [fold] | Kd [4] [pM] | koff [4] [s⁻¹] | kon [4] [M⁻¹ s⁻¹] | EC50 [5] [pM] | EC50 [6] [pM] | EC50 [7] [pM] | Fold change vs chimeric antibodies (KD) [8] [fold]
B1 | 637 | 18.4 | 1 | 98 | 0.000145 | 1.48e+06 | 74.1 | 33 | 15.9 | 
B2 | 716 | 35.7 |  | 3710 | 0.0105 | 2.83e+06 | 56.1 | 12.9 | 28.9 | 50
B3 | 358 | 32 |  | 734 | 0.00248 | 3.38e+06 | 36.8 | 27.9 | 23.8 | 9.89
B4 | 347 | 29.6 |  | 184 | 0.000459 | 2.49e+06 | 67.3 | 24.6 | 26.8 | 2.48
B5 | 360 | 16.5 | 1 | 27.6 | 0.000113 | 4.76e+06 | 26.5 | 26 | 19 | 
B6 | 579 | 25.8 | 1 | 77.4 | 0.000162 | 2.09e+06 | 150 | 29.9 | 15.2 | 
